Patent US20150203575A1 (Genentech, published 2015)

Key:
Assay in all cases: cDNA expression library screen with PILRα-AP supernatant on COS7 transfectants; positive clones further analysed by FACS
ETBR expressed on cells = molecular target: T1, ETBR expressed on cells (human, UniProt P24530 27-442)
T1 construct: Clone of the Origene human cDNA library; also called Endothelin receptor type B
T1 sequence: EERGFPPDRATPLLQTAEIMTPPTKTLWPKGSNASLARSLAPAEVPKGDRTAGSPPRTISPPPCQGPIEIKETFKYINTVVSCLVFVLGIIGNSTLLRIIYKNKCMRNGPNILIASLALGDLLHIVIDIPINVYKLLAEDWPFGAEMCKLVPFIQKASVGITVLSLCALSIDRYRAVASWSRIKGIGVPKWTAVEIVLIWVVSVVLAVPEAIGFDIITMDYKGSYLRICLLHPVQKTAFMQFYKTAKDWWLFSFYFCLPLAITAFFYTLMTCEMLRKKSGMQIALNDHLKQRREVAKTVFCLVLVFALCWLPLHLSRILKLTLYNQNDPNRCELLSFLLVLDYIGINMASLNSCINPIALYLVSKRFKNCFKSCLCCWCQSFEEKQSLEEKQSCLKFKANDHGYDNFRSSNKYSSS
Procedure: (§1) COS7 cells were plated in a 24-well format and transfected with 10 ul of Origene library DNA (Origene, human DNA library containing 20 k genes) per well with Fugene 6 Reagent. Two days later, cells were incubated with human or mouse PILRα-Ap supernatants for 45 min at room temperature (RT). Then cells were fixed with 4% PFA for 15 min at RT. After removing fixation buffer, cells were blocked with 100 mM Glycine in HBS (20 mM Hepes, PH7.2, 150 mM NaCl) for 15 min at RT. Cells were then rinsed and incubated in HBS for 90 min at 65° C. HBS was removed and Western Blue Substrate (Promega) was added and color was developed for 30 min to 1 hr.

[1] = molecular target: T2, CLEC4G expressed on cells (human, UniProt Q6UXB4 1-293)
T2 construct: Clone of the Origene human cDNA library; also called C type lectin superfamily 4 member G
T2 sequence: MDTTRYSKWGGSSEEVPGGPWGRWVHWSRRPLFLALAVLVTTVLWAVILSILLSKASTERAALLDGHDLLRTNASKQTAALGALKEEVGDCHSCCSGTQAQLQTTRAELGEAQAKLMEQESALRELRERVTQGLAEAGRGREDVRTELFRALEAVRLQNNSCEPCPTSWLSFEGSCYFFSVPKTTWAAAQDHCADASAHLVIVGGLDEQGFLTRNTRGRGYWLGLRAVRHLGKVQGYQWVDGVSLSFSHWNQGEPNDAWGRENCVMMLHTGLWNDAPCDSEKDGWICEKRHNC
Procedure: as §1

[2] = molecular target: T3, IL-2Ra expressed on cells (human, UniProt P01589 22-272)
T3 construct: Clone of the Origene human cDNA library; also called Interleukin 2 receptor alpha
T3 sequence: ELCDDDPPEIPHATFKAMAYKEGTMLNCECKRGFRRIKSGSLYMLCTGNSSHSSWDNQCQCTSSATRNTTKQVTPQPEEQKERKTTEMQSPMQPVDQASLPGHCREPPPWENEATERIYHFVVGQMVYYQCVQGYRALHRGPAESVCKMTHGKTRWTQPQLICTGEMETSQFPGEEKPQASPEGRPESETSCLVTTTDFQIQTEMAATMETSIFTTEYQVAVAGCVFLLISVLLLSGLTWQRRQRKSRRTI
Procedure: as §1

[3] = molecular target: T4, FceRII expressed on cells (human, UniProt P06734 1-321)
T4 construct: Clone of the Origene human cDNA library; also called FcRII
T4 sequence: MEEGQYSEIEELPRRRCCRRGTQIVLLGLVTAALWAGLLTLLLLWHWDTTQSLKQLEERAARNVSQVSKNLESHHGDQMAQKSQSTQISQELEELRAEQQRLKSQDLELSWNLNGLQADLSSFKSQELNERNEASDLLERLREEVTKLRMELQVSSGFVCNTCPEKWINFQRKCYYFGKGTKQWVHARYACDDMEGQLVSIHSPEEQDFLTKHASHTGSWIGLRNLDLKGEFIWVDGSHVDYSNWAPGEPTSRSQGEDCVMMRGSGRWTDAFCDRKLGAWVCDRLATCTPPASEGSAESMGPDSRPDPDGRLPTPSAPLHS
Procedure: as §1

[4] = molecular target: T5, LRRTM4 expressed on cells (human, UniProt Q86VH4 31-590)
T5 construct: Clone of the Origene human cDNA library; also called Leucine rich repeat transmembrane neuronal 4
T5 sequence (Q86VH4 31-590 limits assumed): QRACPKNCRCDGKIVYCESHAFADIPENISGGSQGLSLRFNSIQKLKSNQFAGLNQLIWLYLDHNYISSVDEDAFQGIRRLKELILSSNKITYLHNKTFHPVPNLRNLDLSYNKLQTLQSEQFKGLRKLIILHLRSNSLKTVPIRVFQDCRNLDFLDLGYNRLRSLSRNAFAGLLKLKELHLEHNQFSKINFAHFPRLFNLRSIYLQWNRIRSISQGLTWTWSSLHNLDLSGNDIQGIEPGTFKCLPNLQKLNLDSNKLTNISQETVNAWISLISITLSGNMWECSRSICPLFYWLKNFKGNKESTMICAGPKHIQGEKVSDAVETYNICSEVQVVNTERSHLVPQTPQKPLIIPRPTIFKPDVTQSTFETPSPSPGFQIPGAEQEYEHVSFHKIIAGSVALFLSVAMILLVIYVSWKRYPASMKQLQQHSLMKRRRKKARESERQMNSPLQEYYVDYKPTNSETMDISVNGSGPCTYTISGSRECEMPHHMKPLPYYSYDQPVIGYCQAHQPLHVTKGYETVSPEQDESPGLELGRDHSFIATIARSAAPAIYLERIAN
Procedure: as §1

PTPRN expressed on cells = molecular target: T6, PTPRN expressed on cells (human, UniProt Q16849 35-979)
T6 construct: Clone of the Origene human cDNA library; also called Protein tyrosine phosphatase receptor-type N
T6 sequence: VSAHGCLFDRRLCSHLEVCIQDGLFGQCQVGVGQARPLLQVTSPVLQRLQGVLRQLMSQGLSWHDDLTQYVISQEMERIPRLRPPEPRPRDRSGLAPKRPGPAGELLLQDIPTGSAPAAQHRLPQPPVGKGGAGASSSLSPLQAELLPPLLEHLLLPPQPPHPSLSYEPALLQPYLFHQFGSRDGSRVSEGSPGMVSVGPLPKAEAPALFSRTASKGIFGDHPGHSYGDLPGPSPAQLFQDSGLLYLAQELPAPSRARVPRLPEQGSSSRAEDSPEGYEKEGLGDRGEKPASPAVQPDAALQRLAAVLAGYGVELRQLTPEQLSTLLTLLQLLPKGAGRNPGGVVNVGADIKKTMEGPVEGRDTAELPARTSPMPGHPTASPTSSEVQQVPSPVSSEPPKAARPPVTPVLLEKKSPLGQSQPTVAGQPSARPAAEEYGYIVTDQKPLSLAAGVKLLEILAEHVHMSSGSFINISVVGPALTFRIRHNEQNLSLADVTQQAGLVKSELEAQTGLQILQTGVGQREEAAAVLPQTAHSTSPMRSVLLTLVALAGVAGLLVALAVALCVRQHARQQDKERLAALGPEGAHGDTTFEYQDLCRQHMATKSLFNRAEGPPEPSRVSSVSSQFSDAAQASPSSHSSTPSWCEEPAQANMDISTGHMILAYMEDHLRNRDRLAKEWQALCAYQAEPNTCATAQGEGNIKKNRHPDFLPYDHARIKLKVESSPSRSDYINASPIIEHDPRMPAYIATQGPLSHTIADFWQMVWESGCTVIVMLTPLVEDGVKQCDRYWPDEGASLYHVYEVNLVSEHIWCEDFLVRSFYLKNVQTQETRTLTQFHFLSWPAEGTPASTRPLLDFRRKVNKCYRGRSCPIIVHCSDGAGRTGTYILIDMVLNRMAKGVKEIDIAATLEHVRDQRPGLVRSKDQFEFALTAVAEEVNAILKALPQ
Procedure: as §1

WDR31 expressed on cells = molecular target: T7, WDR31 expressed on cells (human, UniProt Q8NA23 1-367)
T7 construct: Clone of the Origene human cDNA library; also called WD repeat domain 31
T7 sequence (Q8NA23 other isoform, or with tags, fused parts or gaps): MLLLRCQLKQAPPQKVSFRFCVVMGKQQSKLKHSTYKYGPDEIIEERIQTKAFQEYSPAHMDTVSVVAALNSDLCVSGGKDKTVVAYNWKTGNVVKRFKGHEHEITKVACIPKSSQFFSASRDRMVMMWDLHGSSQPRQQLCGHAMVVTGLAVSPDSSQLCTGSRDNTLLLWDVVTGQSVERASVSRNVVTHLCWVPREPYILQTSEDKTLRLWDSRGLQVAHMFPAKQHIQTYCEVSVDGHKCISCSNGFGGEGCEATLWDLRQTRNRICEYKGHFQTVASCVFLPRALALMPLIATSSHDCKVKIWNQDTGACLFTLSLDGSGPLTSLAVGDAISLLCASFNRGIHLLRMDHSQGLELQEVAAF
Procedure: as §1

Measured: binding result

B1: hPILRα-AP (other)
chain: QPSGSTGSGPSYLYGVTQPKHLSASMGGSVEIPFSFYYPWELATAPDVRISWRRGHFHRQSFYSTRPPSIHKDYVNRLFLNWTEGQKSGFLRISNLQKQDQSVYFCRVELDTRSSGRQQWQSIEGTKLSITQAVTTTTQRPSSMTTTWRLSSTTTTTGLRVTQGKRRSDSWHISLET
notes: Used as culture supernatant; also called human PILRα-AP; Alkaline phosphatase (AP)-tagged PILRα construct; not shown: C-terminal alkaline phosphatase (AP) tag
binds: all assays above
